The source of these data is US8158376B2, “Bisubstrate fluorescent probe binding to protein kinases” (University of Tartu, priority 2006, dated 2012).

Holding throughout (assay): Kinase selectivity panel
Common to all, as to format: biochemical

Data set [1] deals with NEK7 (Homo sapiens, UniProt Q8TDX7). The following applies: read-out: residual activity (%) NEK7. The method, then: (§1) The panel of kinases included all 52 kinases available for testing.
(§2) The assay of protein kinases was performed at 30° C. as described previously [Davies et al., Biochem. J. 351 (2000) 95; Murray et al., Biochem. J. 384 (2004) 477].

Data set [2] deals with GSK3b (Homo sapiens, UniProt P49841). The following applies: read-out: residual activity (%) GSK3b. The method, then: as §1, §2
Data set [3] has as its target MAPKAP-K1a/rsk-1 (Homo sapiens, UniProt Q15418). Conditions: inhibitor 1 μM, ATP 50 μM. On the procedure:
as §1, §2

Data set [4] addresses T1, PKD1 (Homo sapiens, UniProt Q15139).
T1 sequence (Q15139 1-912): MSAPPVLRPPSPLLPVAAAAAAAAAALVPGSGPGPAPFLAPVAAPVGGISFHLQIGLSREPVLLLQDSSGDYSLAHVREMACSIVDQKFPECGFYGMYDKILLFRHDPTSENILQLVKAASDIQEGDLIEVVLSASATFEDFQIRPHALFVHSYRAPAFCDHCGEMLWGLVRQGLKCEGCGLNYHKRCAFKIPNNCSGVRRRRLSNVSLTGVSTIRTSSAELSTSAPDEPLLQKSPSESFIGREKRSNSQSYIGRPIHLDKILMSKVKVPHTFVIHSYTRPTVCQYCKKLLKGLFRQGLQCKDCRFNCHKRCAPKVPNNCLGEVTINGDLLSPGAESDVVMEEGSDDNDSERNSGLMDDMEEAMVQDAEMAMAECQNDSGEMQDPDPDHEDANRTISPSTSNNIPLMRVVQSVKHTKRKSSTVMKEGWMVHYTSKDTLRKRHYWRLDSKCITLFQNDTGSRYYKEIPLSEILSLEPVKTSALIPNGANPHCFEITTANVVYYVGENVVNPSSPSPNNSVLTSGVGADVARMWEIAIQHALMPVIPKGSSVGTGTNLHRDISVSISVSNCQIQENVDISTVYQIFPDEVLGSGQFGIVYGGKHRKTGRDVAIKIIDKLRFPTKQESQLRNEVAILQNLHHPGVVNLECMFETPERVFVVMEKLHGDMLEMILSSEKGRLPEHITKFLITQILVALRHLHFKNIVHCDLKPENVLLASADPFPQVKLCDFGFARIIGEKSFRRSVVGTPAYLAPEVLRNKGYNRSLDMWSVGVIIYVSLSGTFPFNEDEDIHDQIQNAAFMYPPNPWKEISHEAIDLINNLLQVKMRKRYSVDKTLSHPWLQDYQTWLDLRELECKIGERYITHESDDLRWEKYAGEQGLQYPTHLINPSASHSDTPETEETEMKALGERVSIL
Conditions: for remaining activity at 1 µM: read-out: residual activity (%) PKD1. The method, then:
as §1, §2

Data set [5] has as its target T2, PDK1 (Homo sapiens, UniProt O15530).
T2 sequence (O15530 1-556): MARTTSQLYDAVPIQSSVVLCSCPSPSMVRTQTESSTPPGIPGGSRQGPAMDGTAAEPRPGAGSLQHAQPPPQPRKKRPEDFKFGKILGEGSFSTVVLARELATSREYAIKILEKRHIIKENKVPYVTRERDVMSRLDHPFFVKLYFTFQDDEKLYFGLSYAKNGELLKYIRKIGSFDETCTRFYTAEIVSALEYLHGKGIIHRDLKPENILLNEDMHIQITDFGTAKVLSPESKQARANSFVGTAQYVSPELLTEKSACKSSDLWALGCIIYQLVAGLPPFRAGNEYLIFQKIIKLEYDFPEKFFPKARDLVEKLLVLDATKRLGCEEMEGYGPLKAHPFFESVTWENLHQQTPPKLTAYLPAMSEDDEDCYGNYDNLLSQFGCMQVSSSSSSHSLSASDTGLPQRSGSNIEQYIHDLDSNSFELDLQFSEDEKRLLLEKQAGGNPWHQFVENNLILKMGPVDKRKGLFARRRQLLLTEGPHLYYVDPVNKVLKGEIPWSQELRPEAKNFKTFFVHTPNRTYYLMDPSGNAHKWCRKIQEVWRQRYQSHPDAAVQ
Conditions: read-out: residual activity (%) PDK1. The method, then: as §1, §2

The target in data set [6] is Aurora B (Homo sapiens, UniProt Q96GD4). The following applies: read-out: residual activity (%) Aurora B. The method, then: as §1, §2
Data set [7] has as its target MNK1 (Homo sapiens, UniProt Q9BUB5). Conditions: read-out: residual activity (%) MNK1. The method, then:
as §1, §2

The target of data set [8] is CSK (Homo sapiens, UniProt P41240). Conditions: read-out: residual activity (%) CSK. On the procedure: as §1, §2
The target in data set [9] is MARK3 (Homo sapiens, UniProt P27448). Conditions: read-out: residual activity (%) MARK3. The method, then:
as §1, §2

In data set [10] the target is CAMK-1 (Homo sapiens, UniProt Q14012). Conditions: read-out: residual activity (%) CAMK-1. The method, then: as §1, §2
Data set [11] deals with CK2 (Homo sapiens, UniProt P68400). The following applies: read-out: residual activity (%) CK2. On the procedure:
as §1, §2

Structures are written as SMILES. Read-outs that look alike come from different tables or passages of the source.

CSK, sequence (P41240 whole entry, species assumed): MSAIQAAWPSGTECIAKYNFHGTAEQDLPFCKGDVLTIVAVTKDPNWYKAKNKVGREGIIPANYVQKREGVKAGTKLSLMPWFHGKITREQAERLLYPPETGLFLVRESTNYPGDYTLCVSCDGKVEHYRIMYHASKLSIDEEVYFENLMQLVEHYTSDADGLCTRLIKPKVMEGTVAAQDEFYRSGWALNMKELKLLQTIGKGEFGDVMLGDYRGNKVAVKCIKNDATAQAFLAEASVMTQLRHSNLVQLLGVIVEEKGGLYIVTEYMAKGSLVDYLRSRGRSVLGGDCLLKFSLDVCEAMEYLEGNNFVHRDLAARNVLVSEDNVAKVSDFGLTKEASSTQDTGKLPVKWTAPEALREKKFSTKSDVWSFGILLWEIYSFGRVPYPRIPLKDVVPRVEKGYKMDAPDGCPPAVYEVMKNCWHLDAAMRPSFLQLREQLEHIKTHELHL
Aurora B, sequence (Q96GD4 whole entry): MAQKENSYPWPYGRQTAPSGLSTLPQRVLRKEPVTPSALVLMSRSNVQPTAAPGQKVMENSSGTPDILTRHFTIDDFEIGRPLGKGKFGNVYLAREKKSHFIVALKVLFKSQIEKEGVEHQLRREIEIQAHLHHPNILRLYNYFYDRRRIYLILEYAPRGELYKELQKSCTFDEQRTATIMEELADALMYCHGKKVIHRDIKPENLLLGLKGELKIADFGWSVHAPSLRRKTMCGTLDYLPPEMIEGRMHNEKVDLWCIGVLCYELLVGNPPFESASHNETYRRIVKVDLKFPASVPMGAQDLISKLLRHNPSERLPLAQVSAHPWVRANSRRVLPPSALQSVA
NEK7, sequence (Q8TDX7 whole entry, species assumed): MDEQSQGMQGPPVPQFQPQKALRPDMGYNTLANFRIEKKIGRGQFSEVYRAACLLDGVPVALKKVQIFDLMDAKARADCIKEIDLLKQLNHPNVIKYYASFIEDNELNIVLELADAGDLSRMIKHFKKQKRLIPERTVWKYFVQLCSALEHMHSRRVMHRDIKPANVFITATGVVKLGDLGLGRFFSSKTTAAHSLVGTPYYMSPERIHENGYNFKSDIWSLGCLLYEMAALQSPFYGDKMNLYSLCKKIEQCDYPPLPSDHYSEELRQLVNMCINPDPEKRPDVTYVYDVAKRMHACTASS
GSK3b, sequence (P49841 whole entry, species assumed): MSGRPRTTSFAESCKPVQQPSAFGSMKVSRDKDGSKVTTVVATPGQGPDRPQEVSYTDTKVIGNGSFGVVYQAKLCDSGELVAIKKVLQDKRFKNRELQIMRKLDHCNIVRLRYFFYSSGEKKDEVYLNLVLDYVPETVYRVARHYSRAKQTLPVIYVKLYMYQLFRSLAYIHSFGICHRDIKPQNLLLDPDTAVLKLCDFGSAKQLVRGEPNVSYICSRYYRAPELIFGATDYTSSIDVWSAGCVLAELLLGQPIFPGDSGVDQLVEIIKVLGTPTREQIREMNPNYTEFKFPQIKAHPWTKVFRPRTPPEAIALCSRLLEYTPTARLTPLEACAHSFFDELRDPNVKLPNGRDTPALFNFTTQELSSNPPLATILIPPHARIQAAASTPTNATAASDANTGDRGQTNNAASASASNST
MNK1, sequence (Q9BUB5 whole entry, species assumed): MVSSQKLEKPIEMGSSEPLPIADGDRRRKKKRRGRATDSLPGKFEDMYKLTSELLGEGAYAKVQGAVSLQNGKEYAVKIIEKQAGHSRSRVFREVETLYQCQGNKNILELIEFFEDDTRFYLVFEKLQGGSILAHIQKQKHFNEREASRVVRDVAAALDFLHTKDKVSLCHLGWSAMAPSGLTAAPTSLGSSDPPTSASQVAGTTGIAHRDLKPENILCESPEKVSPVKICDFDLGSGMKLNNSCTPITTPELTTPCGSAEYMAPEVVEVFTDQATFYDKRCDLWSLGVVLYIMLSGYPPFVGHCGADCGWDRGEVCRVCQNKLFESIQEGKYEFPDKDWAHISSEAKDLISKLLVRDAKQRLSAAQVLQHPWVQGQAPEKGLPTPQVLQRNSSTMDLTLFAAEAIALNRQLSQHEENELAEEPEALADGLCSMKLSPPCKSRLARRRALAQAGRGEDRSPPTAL
MAPKAP-K1a/rsk-1, sequence (Q15418 whole entry): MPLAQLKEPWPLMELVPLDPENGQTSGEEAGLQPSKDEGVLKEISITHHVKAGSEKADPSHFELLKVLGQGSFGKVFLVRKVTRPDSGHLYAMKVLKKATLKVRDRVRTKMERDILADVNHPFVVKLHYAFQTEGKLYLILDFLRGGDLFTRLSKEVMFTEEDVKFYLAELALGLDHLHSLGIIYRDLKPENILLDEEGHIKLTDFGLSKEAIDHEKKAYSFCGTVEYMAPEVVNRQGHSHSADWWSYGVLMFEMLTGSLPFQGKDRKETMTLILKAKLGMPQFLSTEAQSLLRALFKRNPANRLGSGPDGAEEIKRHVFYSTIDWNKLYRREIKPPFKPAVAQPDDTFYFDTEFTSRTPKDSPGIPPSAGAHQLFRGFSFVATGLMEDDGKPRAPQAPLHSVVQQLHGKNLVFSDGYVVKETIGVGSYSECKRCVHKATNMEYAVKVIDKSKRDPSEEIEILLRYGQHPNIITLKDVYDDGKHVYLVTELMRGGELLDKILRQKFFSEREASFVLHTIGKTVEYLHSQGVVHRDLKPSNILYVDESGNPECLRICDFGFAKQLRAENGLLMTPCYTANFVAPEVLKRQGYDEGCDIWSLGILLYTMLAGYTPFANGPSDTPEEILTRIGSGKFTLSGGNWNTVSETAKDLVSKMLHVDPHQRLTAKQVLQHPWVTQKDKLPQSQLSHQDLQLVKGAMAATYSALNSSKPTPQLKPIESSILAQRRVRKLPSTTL
CK2, sequence (P68400 whole entry): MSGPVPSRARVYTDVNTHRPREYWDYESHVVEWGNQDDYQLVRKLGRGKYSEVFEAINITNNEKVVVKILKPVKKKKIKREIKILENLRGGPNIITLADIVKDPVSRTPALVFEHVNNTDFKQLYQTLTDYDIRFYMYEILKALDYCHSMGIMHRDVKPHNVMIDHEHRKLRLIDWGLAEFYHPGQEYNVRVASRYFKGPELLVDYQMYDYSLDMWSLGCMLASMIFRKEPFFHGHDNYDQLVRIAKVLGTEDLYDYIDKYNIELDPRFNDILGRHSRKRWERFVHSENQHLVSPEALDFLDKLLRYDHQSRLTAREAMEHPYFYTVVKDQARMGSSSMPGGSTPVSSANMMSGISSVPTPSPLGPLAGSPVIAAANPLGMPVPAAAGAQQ
MARK3, sequence (P27448 whole entry, species assumed): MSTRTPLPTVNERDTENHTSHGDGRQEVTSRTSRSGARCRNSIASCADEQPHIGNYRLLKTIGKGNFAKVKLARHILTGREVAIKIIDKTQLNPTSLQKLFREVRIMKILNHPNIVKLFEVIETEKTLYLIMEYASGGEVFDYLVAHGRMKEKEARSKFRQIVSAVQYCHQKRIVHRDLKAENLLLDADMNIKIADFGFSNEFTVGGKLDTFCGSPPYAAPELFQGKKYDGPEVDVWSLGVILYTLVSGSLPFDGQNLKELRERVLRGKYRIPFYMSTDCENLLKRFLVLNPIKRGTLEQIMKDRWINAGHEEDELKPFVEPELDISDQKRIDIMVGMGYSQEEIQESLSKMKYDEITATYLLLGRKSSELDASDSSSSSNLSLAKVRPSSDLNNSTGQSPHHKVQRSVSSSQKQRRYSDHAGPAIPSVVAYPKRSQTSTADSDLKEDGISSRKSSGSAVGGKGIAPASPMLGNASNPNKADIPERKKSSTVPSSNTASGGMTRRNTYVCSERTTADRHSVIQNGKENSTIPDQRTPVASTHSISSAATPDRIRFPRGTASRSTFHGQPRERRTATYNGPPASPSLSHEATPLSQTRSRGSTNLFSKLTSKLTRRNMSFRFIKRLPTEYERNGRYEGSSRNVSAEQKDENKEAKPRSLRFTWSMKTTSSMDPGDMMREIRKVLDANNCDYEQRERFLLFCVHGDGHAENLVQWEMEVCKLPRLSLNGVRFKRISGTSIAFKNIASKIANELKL

For `N=C(N)NCCC[C@@H](NC(=O)[C@@H](CCCNC(=N)N)NC(=O)[C@@H](CCCNC(=N)N)NC(=O)[C@@H](CCCNC(=N)N)NC(=O)[C@@H](CCCNC(=N)N)NC(=O)[C@@H](CCCNC(=N)N)NC(=O)CCCCCNC(=O)[C@H]1O[C@@H](n2cnc3c(N)ncnc32)[C@H](O)[C@@H]1O)C(N)=O` [Compound 5, AdcAhx(D-Arg)6-NH2], the remaining activity at 1 µM in data set [1] came out at 58%; in data set [2], 56%; in data set [4], 54%; in [5], 62%; in data set [6], 103%; in data set [7] it was 102%. Besides, the remaining activity at 1 µM was determined as 48% in data set [8], 40% in data set [9], 15% in data set [10] and 104% in data set [11]. For the same molecule, the “residual activity (%) MAPKAP-K1a/rsk-1” value in [3] is 28 (±7) %.
Take `N=C(N)NCCC[C@@H](NC(=O)[C@@H](CCCNC(=N)N)NC(=O)[C@@H](CCCNC(=N)N)NC(=O)[C@@H](CCCNC(=N)N)NC(=O)[C@@H](CCCNC(=N)N)NC(=O)[C@@H](CCCNC(=N)N)NC(=O)CCCCCNCCNS(=O)(=O)c1cccc2cnccc12)C(N)=O` [Compound 26, H9-Hex(D-Arg)6-NH2]: the remaining activity at 1 µM in data set [1] (inhibitor 1 μM, ATP 20 μM) was 56%; in data set [2] (inhibitor 1 μM, ATP 5 μM), 94%; in data set [3] (read-out: residual activity (%) MAPKAP-K1a/rsk-1), 0%; in data set [4] (inhibitor 1 μM, ATP 50 μM), below 10%; in data set [5] (inhibitor 1 μM, ATP 20 μM) it was 56%; in data set [6] (inhibitor 1 μM, ATP 20 μM), 53%. Moreover, the remaining activity at 1 µM in data set [7] (inhibitor 1 μM, ATP 50 μM) is 68%; in data set [8] (inhibitor 1 μM, ATP 20 μM) it was 70%; in [9] (inhibitor 1 μM, ATP 5 μM) it was 53%; in data set [10] (inhibitor 1 μM, ATP 50 μM), below 10%; in data set [11] (inhibitor 1 μM, ATP 5 μM), 87%. Also, the “residual activity (%) PKD1” value in data set [4] (inhibitor 1 μM, ATP 50 μM) was 9 (±1) %.
